# Test results reported in PMC8491902, “Experimental and computational investigation of enzyme functional annotations uncovers misannotation in the EC 1.1.3.15 enzyme class” (PLoS Computational Biology, 2021).
# T1: B8MKR3 (Talaromyces stipitatus, UniProt B8MKR3)
# T1 construct: gene TSTA_043820
# T1 sequence (B8MKR3 1-496): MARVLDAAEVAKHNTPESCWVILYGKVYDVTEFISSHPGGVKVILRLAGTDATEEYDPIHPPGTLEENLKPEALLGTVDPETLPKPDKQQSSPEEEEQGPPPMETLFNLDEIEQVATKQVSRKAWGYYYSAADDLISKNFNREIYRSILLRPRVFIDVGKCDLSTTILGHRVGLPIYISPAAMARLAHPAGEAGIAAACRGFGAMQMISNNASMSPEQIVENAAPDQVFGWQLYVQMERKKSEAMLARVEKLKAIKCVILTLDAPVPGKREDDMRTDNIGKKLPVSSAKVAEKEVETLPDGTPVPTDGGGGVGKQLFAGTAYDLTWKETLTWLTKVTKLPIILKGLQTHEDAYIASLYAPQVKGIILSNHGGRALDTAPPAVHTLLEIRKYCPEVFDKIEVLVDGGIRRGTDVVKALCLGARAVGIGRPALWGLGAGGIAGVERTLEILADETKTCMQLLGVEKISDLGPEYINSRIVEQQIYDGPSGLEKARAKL
# T2: C9Y9E7 (Curvibacter putative symbiont of Hydra magnipapillata, UniProt C9Y9E7)
# T2 construct: gene lldD; full-length synthetic gene in pET21a, C-terminal linker and deca-His tag, soluble E. coli BL21(DE3) lysate
# T2 sequence (C9Y9E7 1-381): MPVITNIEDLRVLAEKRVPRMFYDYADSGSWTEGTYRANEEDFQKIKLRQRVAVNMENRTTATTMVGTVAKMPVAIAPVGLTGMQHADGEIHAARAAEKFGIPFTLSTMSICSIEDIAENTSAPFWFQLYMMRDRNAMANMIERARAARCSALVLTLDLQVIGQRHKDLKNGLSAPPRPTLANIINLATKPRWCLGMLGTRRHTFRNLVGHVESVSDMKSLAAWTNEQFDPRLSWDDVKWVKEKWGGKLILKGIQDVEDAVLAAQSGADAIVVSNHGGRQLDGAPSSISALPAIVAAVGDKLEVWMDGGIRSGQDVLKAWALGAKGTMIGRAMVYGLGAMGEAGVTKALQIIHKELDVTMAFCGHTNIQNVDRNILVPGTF
# T3: W6W585 (Rhizobium sp. CF080, UniProt W6W585)
# T3 construct: gene PMI07_004712; full-length synthetic gene in pET21a, C-terminal linker and deca-His tag, soluble E. coli BL21(DE3) lysate
# T3 sequence (W6W585 1-409): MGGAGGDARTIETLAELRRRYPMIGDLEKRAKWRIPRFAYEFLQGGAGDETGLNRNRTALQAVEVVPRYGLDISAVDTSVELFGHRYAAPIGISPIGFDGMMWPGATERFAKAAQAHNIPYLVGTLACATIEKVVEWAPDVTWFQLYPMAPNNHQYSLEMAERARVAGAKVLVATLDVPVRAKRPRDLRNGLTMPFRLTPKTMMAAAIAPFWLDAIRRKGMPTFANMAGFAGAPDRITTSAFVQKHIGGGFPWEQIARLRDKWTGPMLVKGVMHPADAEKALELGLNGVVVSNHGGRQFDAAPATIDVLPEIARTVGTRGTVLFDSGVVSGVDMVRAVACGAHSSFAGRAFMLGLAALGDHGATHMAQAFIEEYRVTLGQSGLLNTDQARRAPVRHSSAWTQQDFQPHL
# T4: E6SCX5 (Intrasporangium calvum, UniProt E6SCX5)
# T4 construct: gene Intca_2052; full-length synthetic gene in pET21a, C-terminal linker and deca-His tag, soluble E. coli BL21(DE3) lysate
# T4 sequence (E6SCX5 1-415): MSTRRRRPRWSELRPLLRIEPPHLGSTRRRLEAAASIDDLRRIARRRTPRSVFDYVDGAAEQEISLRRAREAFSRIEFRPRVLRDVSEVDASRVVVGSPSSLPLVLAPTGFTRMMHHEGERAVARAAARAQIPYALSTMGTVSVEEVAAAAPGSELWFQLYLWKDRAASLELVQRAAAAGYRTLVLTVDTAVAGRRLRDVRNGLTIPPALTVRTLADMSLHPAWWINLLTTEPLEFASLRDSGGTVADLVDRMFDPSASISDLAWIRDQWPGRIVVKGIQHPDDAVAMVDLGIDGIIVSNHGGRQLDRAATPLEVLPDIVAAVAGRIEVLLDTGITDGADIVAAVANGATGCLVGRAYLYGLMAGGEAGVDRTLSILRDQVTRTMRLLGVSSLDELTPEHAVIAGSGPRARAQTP
# B1: D4MUV9 (Anaerostipes hadrus) (protein)
# chain: MSEYQYNKVTPEMIEKFKEIAPKRVLVGDEINEDFTHDEMAIYGKARPEVLVEATSTEEVAAVVKLCNENKIPVTPSGARTGLVGGAVSIGGGVMISLTKMNKILGYDKENFVVKIQSGVLLNDLAQDAEKQGLLYPPDPGEKFATVGGNVATNAGGMRAVKYGCTRDYVRAMTVVLPTGEIVKLGATVSKTSSGYSLLNLMIGSEGTLGIITELTLKVIPAPKSVISLIIPYENLEDCIATVPQFFMHHLAPQALEFMEKEVVMDTEKFLGKQVYPKELEGTEIGAYLLATFDGNSEEQLEDIIEQASEVVLEAGAIDVLVADTPALKKDAWAVRGALLEAIEADTVLLDECDVVVPTNKIAEFLTYTKSLEAEADFRVKSFGHAGDGNLHIYTCSNDMEEGEFKKQVAVFMDKVYAKATEFGGMISGEHGIGHGKMDYLAESLGPVQMRIMEGVKEVFDPNMILNPGKICYKL
# B2: A0A0R3K2G2 (Caloramator mitchellensis) (protein)
# chain: MFDVAIIGAGVIGCSIARELSKYNLNVALIEKENDVGNVTTKANSAIIHAGYDAKPGTLKGKLNAKGNLMFDELCRELEVPFKRVGSLVLAFDDDEMKTLGKLYEQGIQNGVPELYILSKEKVLEMDPNISDNIKGALYAKTGGIIGPWEFTIALAENAVENGVNIFLSNEVVDIEKKDFGYRIITNKDTYDTKYVVNCAGLYADKINNMVSNNKMEIIPRRGQYYLLDKTVGNLVKYVIFQCPSKLGKGVLVTPTVHGNLLIGPDAEDLIDKTALNTTSEGLNFIVEVARRSVKTLPLNMAITNFAGLRARTERDDFIIEEAVDAKGFINVAGIESPGLSSAPAISLYVIDILKNIAKKIEKKENFNPYRRAIPKFIELSEDEKNELVKKDKRFGKIICRCESITEGEIVSAIHRNVGARTVDAVKRRVRAGMGRCQGGFCSPRVIEILARELGVEMTEIEKDHEGSYILTGPTKSEVQ
# Experiments:
# B8MKR3 = target: T1, B8MKR3; experiment: cytochrome c reduction at […] nm; format: biochemical; conditions: 2 mM substrate; 0.1 mM cytochrome c; 20 mM HEPES pH 7.4
# C9Y9E7 = target: T2, C9Y9E7; experiment: Amplex Red peroxide assay; format: biochemical; conditions: […] DL-mandelate; […] HEPES pH […]; HRP; lysate
# W6W585 = target: T3, W6W585; experiment: Amplex Red peroxide assay; format: biochemical; conditions: […] DL-mandelate; […] HEPES pH […]; HRP; lysate
# E6SCX5 = target: T4, E6SCX5; experiment: Amplex Red peroxide assay; format: biochemical; conditions: 1 mM DL-mandelate; 20 mM HEPES pH 7.4; HRP; lysate
# purified protein [1] = substrate: C[C@@H](O)C(=O)O; experiment: purified protein; conditions: DCPIP + PMS as electron acceptor, 20 mM HEPES pH 7.4, 25 °C
# purified protein [2] = substrate: O=P(O)(O)OC[C@H](O)CO; experiment: purified protein; format: biochemical, Caloramator mitchellensis; conditions: DCPIP + PMS as electron acceptor, 20 mM HEPES pH 7.4, 25 °C
molecule,measurement,setting,value
C[C@H](O)C(=O)O [L-lactate],cytochrome c reduction at 550 nm,B8MKR3,the B8MKR3 protein displayed cytochrome b2 L-lactate dehydrogenase activity
O=C(O)C(O)c1ccccc1 (racemic) [DL-mandelate],Amplex Red peroxide assay,C9Y9E7,the four proteins display a high activity with mandelate
same,Amplex Red peroxide assay,W6W585,the four proteins display a high activity with mandelate
same,Amplex Red peroxide assay,E6SCX5,the four proteins display a high activity with mandelate
B1,Km,purified protein [1],0.40 +/- 0.04 x 10^-3 M
same,kcat,purified protein [1],5.18 s⁻¹
same,kcat/Km,purified protein [1],13100 M⁻¹ s⁻¹
B2,Km,purified protein [2],1.97 +/- 0.23 x 10^-3 M
same,kcat,purified protein [2],0.242 s⁻¹
same,kcat/Km,purified protein [2],123 M⁻¹ s⁻¹
